From doi:10.1101/2022.04.05.486672

Assays:
[1] = biological target: SIRK1-ECD together with co-receptor QSK1-ECD (about 20 nM each) (Arabidopsis); test: MST
[2] = biological target: SIRK1-ECD-HA-StrepII (extracellular domain of SIRK1) (Arabidopsis); test: MST

VSGNVAARKGKQQTSSGKGGGTN [PEP7 (Elicitor Peptide 7), synthetic, untagged]
Kd [1]: 57 nM
Kd [2]: 1440 nM
